From US9090882B2, “Compositions and methods for enhanced amino acid levels in plants conferred by lysine and/or threonine feedback insensitive aspartate kinase proteins” (priority 2008, dated 2015)
Numbering of substitutions follows the chain as printed. Names and notes keep the numbering of the source. Where two headings read alike, the source gives them in different places.

B1: E. coli T352I lysC gene product: E. coli feedback-insensitive (T352I) lysC aspartate kinase, control (protein, listed as Escherichia coli)
chain: MSEIVVSKFGGTSVADFDAMNRSADIVLSDANVRLVVLSASAGITNLLVALAEGLEPGERFEKLDAIRNIQFAILERLRYPNVIREEIERLLENITVLAEAAALATSPALTDELVSHGELMSTLLFVEILRERDVQAQWFDVRKVMRTNDRFGRAEPDVAALAELAALQLLPRLNDGLVITQGFIGSENKGRTTTLGRGGSDYTAALLAEALHASRVDIWTDVPGIYTTDPRVVSAAKRIDEIAFAEAAEMATFGAKVLHPATLLPAVRSDIPVFVGSSKDPRAGGTLVCNKTENPPLFRALALRRNQTLLTLHSLNMLHSRGFLAEVFGILARHNISVDLITTSEVSVALTLDTTGSTSTGDTLLTQSLLMELSALCRVEVEEGLALVALIGNDLSKACGVGKEVFGVLEPFNIRMICYGASSHNLCFLVPGEDAEQVVQKLHFNLFE
B2: E. coli lysC gene product: recombinant E. coli lysC aspartate kinase, control sensitive to feedback inhibition by Lys (protein, UniProt P08660 2-449, looked up)
Lysine-sensitive …: SEIVVSKFGGTSVADFDAMNRSADIVLSDANVRLVVLSASAGITNLLVALAEGLEPGERFEKLDAIRNIQFAILERLRYPNVIREEIERLLENITVLAEAAALATSPALTDELVSHGELMSTLLFVEILRERDVQAQWFDVRKVMRTNDRFGRAEPDIAALAELAALQLLPRLNEGLVITQGFIGSENKGRTTTLGRGGSDYTAALLAEALHASRVDIWTDVPGIYTTDPRVVSAAKRIDEIAFAEAAEMATFGAKVLHPATLLPAVRSDIPVFVGSSKDPRAGGTLVCNKTENPPLFRALALRRNQTLLTLHSLNMLHSRGFLAEVFGILARHNISVDLITTSEVSVALTLDTTGSTSTGDTLLTQSLLMELSALCRVEVEEGLALVALIGNDLSKACGVGKEVFGVLEPFNIRMICYGASSHNLCFLVPGEDAEQVVQKLHSNLFE
B3: X. bovienii AK T359I: Xenorhabdus bovienii aspartate kinase variant, Thr 359 replaced with Ile (protein, listed as Xenorhabdus bovienii)
chain: MCAVSSTYPQYVVAKFGGTSVADFDAMNHCADIILANADVRVVVLSASAGVTNLLVALATGCDNDKRKKCLKQIRDIQYAIIDRLNDVNVICEEIDRLLENIEMLSEAASLATSEALTDELVSHGEVMSTLLFVELLRQRNVNAEWFDIRRVMRTNDHFGRAEPDSLQLHISAVELLQPRLNNTVVITQGFIGREEKGRTTTLGRGGSDYTAALLGEALNLQRVDIWTDVPGIYTTDPRVAPTAKRIDKIAFDEAAEMATFGAKILHPATLLPAIRCGIPVFVGSSKDPQAGGTLVCDKTENPPLFRALALRRKQTLLTLHSLKMLHARGFLAEVFTLLLRHNISVDLITTSEVSVALILDTTGSTSTNGSLLTNALLTELSTLCRVEVEEDLALVAIIGNELSQAKGLGKEIFGTLESFNIRMISYGASSHNVCLLVPGQDAESVIQKLHQNLFKV
B4: X. bovienii AK Wild Type: purified recombinant His-tagged wild-type Xenorhabdus bovienii aspartate kinase (encoded by SEQ ID NO: 6) (protein, listed as Xenorhabdus bovienii)
chain: B3 chain with I359T
modifications: His tag
B5: X. bovienii AK E257K/T359I: Xenorhabdus bovienii aspartate kinase double variant E257K/T359I (protein, listed as Xenorhabdus bovienii)
chain: B3 chain with E257K
B6: X. bovienii AK E257K: Xenorhabdus bovienii aspartate kinase variant, Glu 257 replaced with Lys (protein, listed as Xenorhabdus bovienii)
chain: B3 chain with E257K, I359T

How the values were obtained:
[1] = system: plants; conditions: expression in plants; Karchi et al. 1993, Galili et al. EP 0485970; cited from earlier work
[2] = system: E. coli lysC aspartate kinase; conditions: known from the literature; cited from earlier work
[3] = system: X. bovienii aspartate kinase; assay: Aspartate kinase enzyme assays and kinetic studies (colorimetric hydroxamate / coupled assay) with purified recombinant His-tagged AK; format: biochemical, Xenorhabdus bovienii; conditions: for Vmax Asp / Km: purified enzyme
Protocol: The chimeric plasmids containing AK or the desired mutants were transformed into E. coli BL21 (DE3) cells and transformants were selected on LB (Luria-Bertani) medium containing kanamycin (50 μg/mL). For induction of gene expression, transformants selected from single colonies were grown in 100 mL liquid LB supplemented with ampicillin or kanamycin to approximately 0.6 A600, and 0.4 mM. Isopropyl-β-thiogalactopyranoside (IPTG) (Gold Biotechnologies, St. Louis, Mo.) was added, followed by 15 hours incubation at 21° C. and 220 rpm shaking. Cells were harvested by 30 min centrifugation at 7,000×g and washed once with 20 mM Tris-HCl, 150 mM NaCl, pH 7.4. Washed cell pellets were re-suspended in 50 mM K-phosphate buffer (pH7.4, Buffer A) containing 2 mM MgCl2, 50 mM NaCl, 100 units of benzonase (Novagen, San Diego, Calif.) and protease inhibitor cocktail tablets without EDTA (1 tablet/10 mL) (Boehringer Mannheim, Germany). Cells were broken by three passages through a chilled French press cell (SLM-Aminco Spectronic Instruments), operating at 20,000 psi. The lysate was centrifuged by an ultra-centrifuge for 1 hour at 100,000×g, at 4° C. The resulting supernatant was applied to nickel+-nitrilotriacetic acid (Ni+NTA) agarose column (His-Bind resin, Qiagen) and chromatographed according to the supplier's instructions. The column was washed with 3 bed volumes of Buffer A containing 20 mM imidiazole followed by elution with 300 mM imidazole. Enzymatically active fractions of the N-terminal His-tagged […] were pooled, dialyzed against Buffer A without benzonase, and stored in 15% glycerol solution at −80° C. for use in kinetic studies. The enzyme preparation was over 95% pure as judged by Coomassie Blue-stained SDS-PAGE.
Colorimetric Hydroxamate Method. The assay mixture (final volume, 0.8 mL) contained 100 Tris-HCl, pH8.0, 40 mM hydroxylamine-KOH, pH8.0, 25 mM ATP-KOH, pH8.0, 20 mM MgCl2, L-aspartic acid, and 150 mM KCl. The reaction was initiated by addition of AK enzyme, and carried out at 37° C. for 15-30 min. The reaction was terminated by addition of 400 μL acidified ferric chloride (0.37 M FeCl3, 20% TCA, and 0.72 M HCl) and followed by the centrifugation at top speed of microcentrifuge. The formed aspartyl-hydroxamate was determined by colorimetrically at 505 nm. The biosynthetic activity was calculated based on the standard curves of L-aspartyl-hydroxamate or ε505nm.
The assay couples the conversion of ATP to ADP to the oxidation of NADH using pyruvate kinase and lactate dehydrogenase at 30° C. NADH oxidation was monitored kinetically at 340 nm. (See Wampler D E, Westhead E W. (1968), BIOCHEMISTRY 7: 1661-1670.)
Kinetic parameters were determined by measuring product formation in 100 μL reaction mixtures containing various substrate concentrations ranging from 0 to 25 mM. Controls were included for every assay. Values for Km, Vmax, and Kcat were calculated from the rate of the product formation using Michaelis-Menten equations in conjunction with the curve fitting options in the Grafit 5.0 software (Erithacus software Ltd., Horley, UK) (Table 2).

[4] = substrate ATP, read-out: Km ATP
[5] = substrate Asp, read-out: Km Asp

Molecule	increase in threonine content of the seed [1]	feedback inhibition by Lys [2]	Vmax Asp [3]	Km [3, 4]	Km [3, 5]	IC50 ([3]; inhibition of the purified enzyme by lysine)
B1	6-7%	lysine-insensitive				
B2		sensitive to feedback inhibition by Lys				
B3			0.26 μmoles · min^−1 · mg^−	1820 µM	2310 µM	
B4			0.29 μmoles · min^−1 · mg^−	2560 µM	2730 µM	140 µM
B5			0.24 μmoles · min^−1 · mg^−	1620 µM	3100 µM	
B6			0.20 μmoles · min^−1 · mg^−	1890 µM	3060 µM	
